Laboratory results from patent US20190112341.

Test system: EV71 structural polyprotein P1 (Wt HK08), unprocessed (98 kDa)

| Substance | proteolytic processing of P1 in planta, anti-VP1 western blot (vectors 1300+1310) | proteolytic processing of P1 in planta, anti-VP1 western blot (vectors 1300+1315) |
| --- | --- | --- |
| EV71 protease 3CD (Wt HK08) | the 98 kDa signal completely disappears and a new product is detected that corresponds in molecular weight to VP1 (33.5 kDa) | – |
| EV71 protease 3CD (Wt GDFS08) | – | the 98 kDa signal completely disappears and a new product is detected that corresponds in molecular weight to VP1 (33.5 kDa) |
